These are literature values, as cited in patent publication US20030092000.

Broadly, the Kd is the concentration at which binding is half-saturated.

Conditions in all cases: method not stated
Data set [1] concerns FAD 3A (designed three-finger ZFP) (synthetic).
Data set [2] deals with FAD 3B (designed three-finger ZFP) (synthetic).
For data set [3], the system named is FAD 1B (designed three-finger ZFP) (synthetic).
Data set [4] has as its system FAD 1A (designed three-finger ZFP) (synthetic).
The test system of data set [5] is FAD 4A (designed three-finger ZFP) (synthetic).
In data set [6] the test system is FAD 4B (designed three-finger ZFP) (synthetic).
For data set [7], the system named is FAD 5A (designed three-finger ZFP) (synthetic).
Data set [8] deals with FAD 2A (designed three-finger ZFP) (synthetic).

Consider “GTTGAGGAAG (double strand) [FAD 3 target]”, for which the Kd in data set [1] and in data set [2] was 0.1 µM in each case.

Turning to “GAGGTAGAGG (double strand) [FAD 1 target]”, the Kd in data set [3] and in data set [4] was 0.01 µM in each case.

“GAGGTGGAAG (double strand) [FAD 4 target]”: the Kd was 0.01 µM in data set [5] and 0.002 µM in data set [6].

For “TAGGTGGTGA (double strand) [FAD 5 target]”, the Kd in data set [7] was 0.01 µM.

As to “GTCGTGTGGA (double strand) [FAD 2 target]”, in data set [8], the Kd is 0.1 µM.
